The results in this text go back to article PMC3407616, “Inhibition of Heme Peroxidases by Melamine” (Enzyme Research, 2012).

The subject of one data set is I. In words: purified protein. The conditions noted are these: pH 6.0.
The target of a further data set is lactoperoxidase (LPO) (Bos taurus, UniProt P80025). In words: iodide oxidation (HOI formation), absorbance […] nm, kinetic fit. In kind it is biochemical. As to conditions: read-out: LPO^b.

For lactoperoxidase (LPO) (Bos taurus), the Km with I turned out to be 2900 ± 400 µM.

In the case of `Nc1nc(N)nc(N)n1` [melamine, 2,4,6-triamino-1,3,5-triazine], the Ki on lactoperoxidase (LPO) stood at 15 ± 5 mM.

The Km is the concentration of substrate that gives half-maximal velocity.
